According to patent publication US20120244162A1 (MICROMET, published 2012):
Each block holds one binder with its values, some of them ahead of it.

Key:
[1] = target: T1, 1-27 CD3-Fc (N-terminal amino acids 1-27 of the mature human CD3 epsilon chain fused to the hinge and Fc … (human)); assay: SPR (Biacore 2000), 1-27 CD3-Fc coupled to CM5 chip, analyte 5 µg/ml
T1 construct: also called 1-27 CD3ε-Fc; human CD3 epsilon (aa 1-27)-Fc fusion protein

[2] = target: T1, 1-27 CD3-Fc (N-terminal amino acids …); assay: ELISA, periplasmic scFv on captured 1-27 CD3-Fc
tamarin 1-27 CD3ε-EpCAM = target: T2, tamarin 1-27 CD3ε-EpCAM (Saguinus oedipus CD3 epsilon 1-27, …); assay: FACS on transfected 293-HEK cells, periplasmic scFv
T2 construct: On transiently transfected 293-HEK cells; also called 1-27 CD3-EpCAM comprising the tamarin 27 mer
T2 chain: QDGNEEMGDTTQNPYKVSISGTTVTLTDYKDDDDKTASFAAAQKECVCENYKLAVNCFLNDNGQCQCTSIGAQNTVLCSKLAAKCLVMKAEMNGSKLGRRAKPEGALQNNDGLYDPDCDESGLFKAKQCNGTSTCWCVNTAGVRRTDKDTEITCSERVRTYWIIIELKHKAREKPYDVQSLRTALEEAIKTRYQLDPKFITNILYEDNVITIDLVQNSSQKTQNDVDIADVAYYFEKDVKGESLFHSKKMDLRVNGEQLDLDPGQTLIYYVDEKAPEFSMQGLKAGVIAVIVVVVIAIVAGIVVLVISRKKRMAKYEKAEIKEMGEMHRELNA

[3] = target: T3, squirrel monkey 1-27 CD3ε-EpCAM (Saimiri sciureus CD3 epsilon 1-27, …); assay: as above
T3 construct: also called 1-27 CD3-EpCAM comprising the squirrel monkey 27 mer
T3 chain: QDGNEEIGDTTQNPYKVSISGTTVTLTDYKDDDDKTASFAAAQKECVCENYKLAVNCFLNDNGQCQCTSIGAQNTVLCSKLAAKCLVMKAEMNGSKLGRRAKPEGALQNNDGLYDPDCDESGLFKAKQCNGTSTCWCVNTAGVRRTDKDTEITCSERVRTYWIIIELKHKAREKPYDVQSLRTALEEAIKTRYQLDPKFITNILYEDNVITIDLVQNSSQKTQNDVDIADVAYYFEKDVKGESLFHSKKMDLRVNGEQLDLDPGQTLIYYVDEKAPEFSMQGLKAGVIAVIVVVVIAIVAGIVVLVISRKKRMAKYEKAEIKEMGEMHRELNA

marmoset 1-27 CD3ε-EpCAM = target: T4, marmoset 1-27 CD3ε-EpCAM (Callithrix jacchus CD3 epsilon 1-27, …); assay: as above
T4 construct: On transiently transfected 293-HEK cells; also called 1-27 CD3-EpCAM comprising the marmoset 27 mer
T4 chain: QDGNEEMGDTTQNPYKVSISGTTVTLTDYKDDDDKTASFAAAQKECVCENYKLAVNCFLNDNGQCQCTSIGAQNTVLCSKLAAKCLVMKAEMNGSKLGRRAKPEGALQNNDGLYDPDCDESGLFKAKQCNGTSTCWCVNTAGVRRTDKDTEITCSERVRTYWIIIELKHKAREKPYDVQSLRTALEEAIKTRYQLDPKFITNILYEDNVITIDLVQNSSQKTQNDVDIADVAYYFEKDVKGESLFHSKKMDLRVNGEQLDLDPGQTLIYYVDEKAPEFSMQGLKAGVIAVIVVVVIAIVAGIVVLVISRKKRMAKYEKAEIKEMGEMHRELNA

human 1-27 CD3ε-EpCAM = target: T5, human 1-27 CD3ε-EpCAM (human CD3 epsilon 1-27, cynomolgus EpCAM); assay: as above
T5 construct: Transmembrane fusion: CD3 epsilon 1-27, Flag tag, mature cynomolgus EpCAM; on transiently transfected 293-HEK cells; also called 1-27 CD3-EpCAM comprising the human 27 mer
T5 chain: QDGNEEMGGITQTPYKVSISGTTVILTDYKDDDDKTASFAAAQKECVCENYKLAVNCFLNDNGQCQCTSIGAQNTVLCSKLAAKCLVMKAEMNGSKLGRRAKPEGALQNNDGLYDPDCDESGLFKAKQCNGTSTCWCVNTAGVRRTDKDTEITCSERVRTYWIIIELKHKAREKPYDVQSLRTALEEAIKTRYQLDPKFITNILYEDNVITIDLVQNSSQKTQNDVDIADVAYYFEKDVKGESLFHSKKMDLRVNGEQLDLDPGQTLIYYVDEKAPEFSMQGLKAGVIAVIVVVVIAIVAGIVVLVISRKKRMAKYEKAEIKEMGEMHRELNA

swine 1-27 CD3ε-EpCAM = target: T6, swine 1-27 CD3ε-EpCAM (Sus scrofa CD3 epsilon 1-27, cynomolgus …); assay: FACS on transfected 293-HEK cells
T6 construct: Negative control construct on 293-HEK cells; also called 1-27 CD3-EpCAM comprising the swine 27 mer
T6 chain: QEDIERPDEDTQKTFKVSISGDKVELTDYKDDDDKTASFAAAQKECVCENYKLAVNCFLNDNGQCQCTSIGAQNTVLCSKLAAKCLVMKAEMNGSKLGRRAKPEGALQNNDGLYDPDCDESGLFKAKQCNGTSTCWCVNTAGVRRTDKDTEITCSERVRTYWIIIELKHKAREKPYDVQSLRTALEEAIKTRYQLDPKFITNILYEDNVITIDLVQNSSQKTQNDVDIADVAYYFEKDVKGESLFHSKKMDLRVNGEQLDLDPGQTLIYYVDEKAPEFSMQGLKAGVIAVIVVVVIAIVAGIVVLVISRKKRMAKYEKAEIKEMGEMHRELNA

[4] = target: T7, macaque CD3 on the macaque T cell line 4119LnPx (macaque, UniProt Q95LI5 22-198); assay: FACS, 4119LnPx
T7 construct: whole, on cells; Native CD3 complex on 4119LnPx cells; also called cynomolgus CD3

[5] = target: T8, human CD3 epsilon alanine mutant, position 3 (G3A) (human, UniProt P07766 22-207); assay: alanine scanning, FACS on EL4 transfectants
T8 construct: On transfected EL4 cells

[6] = target: T9, human CD3 epsilon alanine mutant, position 5 (E5A) (human, UniProt P07766 22-207); assay: alanine scanning, FACS on EL4 transfectants
T9 construct: On transfected EL4 cells

[7] = target: T10, human CD3 epsilon alanine mutant, position 2 (D2A) (human, UniProt P07766 22-207); assay: alanine scanning, FACS on EL4 transfectants
T10 construct: On transfected EL4 cells

[8] = target: T11, human CD3 epsilon alanine mutant, position 1 (Q1A) (human, UniProt P07766 23-207); assay: alanine scanning, FACS on EL4 transfectants
T11 construct: On transfected EL4 cells; positions count on the mature chain
T11 sequence (P07766 other isoform, or with tags, fused parts or gaps, stated change not applied): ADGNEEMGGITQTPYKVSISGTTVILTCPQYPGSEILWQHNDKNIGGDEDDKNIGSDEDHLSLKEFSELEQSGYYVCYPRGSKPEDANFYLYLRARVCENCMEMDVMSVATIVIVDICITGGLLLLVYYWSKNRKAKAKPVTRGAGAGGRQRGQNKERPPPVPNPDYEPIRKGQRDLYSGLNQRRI

T8 sequence (P07766 other isoform, or with tags, fused parts or gaps limits assumed, stated change not applied): as the sequence (P07766 other isoform, or with tags, fused parts or gaps, stated change not applied) above, with A1Q, G3A counted along it
T9 sequence (P07766 other isoform, or with tags, fused parts or gaps limits assumed, stated change not applied): as the sequence (P07766 other isoform, or with tags, fused parts or gaps, stated change not applied) above, with A1Q, E5A counted along it
T10 sequence (P07766 other isoform, or with tags, fused parts or gaps limits assumed, stated change not applied): as the sequence (P07766 other isoform, or with tags, fused parts or gaps, stated change not applied) above, with A1Q, D2A counted along it
T7 sequence (Q95LI5 22-198): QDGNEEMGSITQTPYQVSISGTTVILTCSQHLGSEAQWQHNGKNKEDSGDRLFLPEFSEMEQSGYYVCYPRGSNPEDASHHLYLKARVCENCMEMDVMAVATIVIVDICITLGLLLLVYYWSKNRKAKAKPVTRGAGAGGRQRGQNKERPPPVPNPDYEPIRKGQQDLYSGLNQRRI

B1: EGFR-21-63 LH × A2J HLP (bispecific antibody)
chain: DIVLTQSPASLPVSLGQRATISCRASQSVSSSTYSYIHWYQQKPGQPPKLLITYASNLESGVPARFSGSGSGTDFTLDIHPVEEDDSSTYYCQHSWEIPFTFGSGTKLEIKGGGGSGGGGSGGGGSQVQLQQSGPDLVKPGASVKMSCKASGHTFTDCVIIWVKQRAGQGLEWIGQIYPGTGRSYYNEIFKGKATLTADKSSNTVHIQLSSLTSEDSAVYFCALSTLIHGTWFSYWGQGTLVTVSSGGGGSEVQLLESGGGLVQPGGSLKLSCAASGFTFNVYAMNWVRQAPGKGLEWVARIRSKYNNYATYYADSVKKRFTISRDDSKNTAYLQMNNLKTEDTAVYYCVRHGNFGNSYLSWWAYWGQGTLVTVSSGGGGSGGGGSGGGGSELVVTQEPSLTVSPGGTVTLTCRSSTGAVTSGYYPNWVQQKPGQAPRGLIGATDMRPSGTPARFSGSLLGGKAALTLSGVQPEDEAEYYCALWYSNRWVFGGGTKLTVLHHHHHH
notes: Bispecific single chain antibody; also called EGFR LH × A2J HLP
Kd [1]: 0.249 µM

B2: EGFR-21-63 LH × E2M HLP (bispecific antibody)
chain: DIVLTQSPASLPVSLGQRATISCRASQSVSSSTYSYIHWYQQKPGQPPKLLITYASNLESGVPARFSGSGSGTDFTLDIHPVEEDDSSTYYCQHSWEIPFTFGSGTKLEIKGGGGSGGGGSGGGGSQVQLQQSGPDLVKPGASVKMSCKASGHTFTDCVIIWVKQRAGQGLEWIGQIYPGTGRSYYNEIFKGKATLTADKSSNTVHIQLSSLTSEDSAVYFCALSTLIHGTWFSYWGQGTLVTVSSGGGGSEVQLLESGGGLVQPGGSLKLSCAASGFTFNGYAMNWVRQAPGKGLEWVARIRSKYNNYATYYADSVKERFTISRDDSKNTAYLQMNNLKTEDTAVYYCVRHRNFGNSYLSWFAYWGQGTLVTVSSGGGGSGGGGSGGGGSELVVTQEPSLTVSPGGTVTLTCRSSTGAVTSGYYPNWVQQKPGQAPRGLIGATDMRPSGTPARFSGSLLGGKAALTLSGVQPEDEAEYYCALWYSNRWVFGGGTKLTVLHHHHHH
notes: Bispecific single chain antibody; also called EGFR LH × E2M HLP
Kd [1]: 2.46 µM

B3: A2J HLP single-chain antibody (scFv)
scFv: EVQLLESGGGLVQPGGSLKLSCAASGFTFNVYAMNWVRQAPGKGLEWVARIRSKYNNYATYYADSVKKRFTISRDDSKNTAYLQMNNLKTEDTAVYYCVRHGNFGNSYLSWWAYWGQGTLVTVSSGGGGSGGGGSGGGGSELVVTQEPSLTVSPGGTVTLTCRSSTGAVTSGYYPNWVQQKPGQAPRGLIGATDMRPSGTPARFSGSLLGGKAALTLSGVQPEDEAEYYCALWYSNRWVFGGGTKLTVLTGDYKDDDDKHHHHHH
notes: Crude periplasmic preparation; also called VH-VL-P of A2J
binding result [2]: binds

B6: A2J HLP chimeric IgG antibody (murine IgG1 and human lambda constant regions) (antibody, V domains shown)
VH: EVQLLESGGGLVQPGGSLKLSCAASGFTFNVYAMNWVRQAPGKGLEWVARIRSKYNNYATYYADSVKKRFTISRDDSKNTAYLQMNNLKTEDTAVYYCVRHGNFGNSYLSWWAYWGQGTLVTVSS
VL: ELVVTQEPSLTVSPGGTVTLTCRSSTGAVTSGYYPNWVQQKPGQAPRGLIGATDMRPSGTPARFSGSLLGGKAALTLSGVQPEDEAEYYCALWYSNRWVFGGGTKLTVLG
notes: also called IgG antibody A2J HLP
binding result [5]: no binding | binding result [6]: no binding | binding result [7]: no binding | binding result [8]: no binding

The remaining lines, values ahead:

binding result (tamarin 1-27 CD3ε-EpCAM): binds | binding result [3]: binds | binding result (marmoset 1-27 CD3ε-EpCAM): binds | binding result (human 1-27 CD3ε-EpCAM): binds | binding result (swine 1-27 CD3ε-EpCAM): no binding | binding result [2]: binds
B4: E2M HLP single-chain antibody (scFv)
scFv: EVQLLESGGGLVQPGGSLKLSCAASGFTFNGYAMNWVRQAPGKGLEWVARIRSKYNNYATYYADSVKERFTISRDDSKNTAYLQMNNLKTEDTAVYYCVRHRNFGNSYLSWFAYWGQGTLVTVSSGGGGSGGGGSGGGGSELVVTQEPSLTVSPGGTVTLTCRSSTGAVTSGYYPNWVQQKPGQAPRGLIGATDMRPSGTPARFSGSLLGGKAALTLSGVQPEDEAEYYCALWYSNRWVFGGGTKLTVLTGDYKDDDDKHHHHHH
notes: Crude periplasmic preparation; also called VH-VL-P of E2M

binding result [4]: binds
B5: MCSP-G4 HLP × E2M HLP (bispecific antibody)
chain: QVQLVQSGAEVKRPGASMKVSCKASGYTFTNYYIHWVRQAPGQGLEWMGWINPNSGATNYAQKFQGRVTMTRDTSTSTVYMELSSLRSEDTAVYYCAKSWVSWFASWGQGTLVTVSSGGGGSGGGGSGGGGSELVMTQSPDSLAVSLGERATINCKSSQSVLNSSNNRNYLAWYQQKPGQPPKLLIYWASTRESGVPDRFSGSGSGTDFTLTISGLQAEDVAVYYCQQHYSTPFTFGPGTKVDIKSGGGGSEVQLLESGGGLVQPGGSLKLSCAASGFTFNGYAMNWVRQAPGKGLEWVARIRSKYNNYATYYADSVKERFTISRDDSKNTAYLQMNNLKTEDTAVYYCVRHRNFGNSYLSWFAYWGQGTLVTVSSGGGGSGGGGSGGGGSELVVTQEPSLTVSPGGTVTLTCRSSTGAVTSGYYPNWVQQKPGQAPRGLIGATDMRPSGTPARFSGSLLGGKAALTLSGVQPEDEAEYYCALWYSNRWVFGGGTKLTVLHHHHHH

binding result [5]: no binding | binding result [6]: no binding | binding result [7]: no binding | binding result [8]: no binding
B7: E2M HLP chimeric IgG antibody (murine IgG1 and human lambda constant regions) (antibody, V domains shown)
VH: EVQLLESGGGLVQPGGSLKLSCAASGFTFNGYAMNWVRQAPGKGLEWVARIRSKYNNYATYYADSVKERFTISRDDSKNTAYLQMNNLKTEDTAVYYCVRHRNFGNSYLSWFAYWGQGTLVTVSS
VL: ELVVTQEPSLTVSPGGTVTLTCRSSTGAVTSGYYPNWVQQKPGQAPRGLIGATDMRPSGTPARFSGSLLGGKAALTLSGVQPEDEAEYYCALWYSNRWVFGGGTKLTVLG
notes: also called IgG antibody E2M HLP
